Measured values taken from PMC10191858, “DNA segment capture by Smc5/6 holocomplexes” (Nature Structural & Molecular Biology, 2023).

Target: T1, Smc5(G1054C), Smc5 with the engineered cysteine of the Smc5–Nse4 interface (S. cerevisiae, UniProt Q08204 1-1093, G1054C)
T1 construct: Smc5, S. cerevisiae, subunit of the Smc5/6 hexamer; engineered cysteine G1054C for BMOE cross-linking to Nse4; Stood in the assay as a subunit of the purified hexamer (Smc5, Smc6, Nse1-4)
T1 sequence (looked up): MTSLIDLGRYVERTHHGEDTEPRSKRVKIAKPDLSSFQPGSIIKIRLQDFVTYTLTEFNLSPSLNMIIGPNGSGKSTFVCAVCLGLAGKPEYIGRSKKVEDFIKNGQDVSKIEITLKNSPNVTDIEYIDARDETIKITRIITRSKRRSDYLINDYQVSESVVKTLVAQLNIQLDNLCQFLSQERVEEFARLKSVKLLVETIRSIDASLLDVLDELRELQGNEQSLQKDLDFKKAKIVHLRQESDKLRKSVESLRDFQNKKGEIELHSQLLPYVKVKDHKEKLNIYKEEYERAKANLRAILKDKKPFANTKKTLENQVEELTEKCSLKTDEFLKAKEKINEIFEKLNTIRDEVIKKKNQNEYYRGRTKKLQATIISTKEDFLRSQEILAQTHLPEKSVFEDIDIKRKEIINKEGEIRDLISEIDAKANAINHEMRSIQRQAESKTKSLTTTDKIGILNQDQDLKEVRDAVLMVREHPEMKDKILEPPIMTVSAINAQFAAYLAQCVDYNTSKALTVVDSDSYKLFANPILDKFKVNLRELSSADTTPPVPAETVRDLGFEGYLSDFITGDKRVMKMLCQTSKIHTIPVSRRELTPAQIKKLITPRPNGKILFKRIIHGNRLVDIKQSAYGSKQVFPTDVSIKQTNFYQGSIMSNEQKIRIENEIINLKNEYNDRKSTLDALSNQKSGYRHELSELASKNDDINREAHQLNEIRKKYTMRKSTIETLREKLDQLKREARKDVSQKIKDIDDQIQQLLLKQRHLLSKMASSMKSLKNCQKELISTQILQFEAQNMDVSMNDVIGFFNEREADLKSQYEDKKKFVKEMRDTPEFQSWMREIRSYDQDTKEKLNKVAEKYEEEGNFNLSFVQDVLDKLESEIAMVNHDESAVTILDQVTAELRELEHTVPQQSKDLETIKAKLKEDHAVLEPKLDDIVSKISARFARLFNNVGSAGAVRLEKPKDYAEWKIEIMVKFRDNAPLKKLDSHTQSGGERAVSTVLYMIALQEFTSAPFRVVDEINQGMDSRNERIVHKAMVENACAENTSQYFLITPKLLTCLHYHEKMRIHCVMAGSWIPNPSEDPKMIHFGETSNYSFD
Test: cross-linking; site-specific BMOE cross-linking (1 mM, 45 s, stopped with 10 mM DTT) of engineered cysteine pairs in purified Smc5/6 hexamers at 0.5 uM; 10 mM Hepes-KOH pH 7.5, 150 mM KOAc, 2 mM MgCl2, 20% glycerol, RT; with or without Nse5/6 dimer (0.625 uM), 2 mM ATP, 5 nM plasmid DNA (25 kbp); SDS-PAGE and Coomassie staining, bands quantified
Details: both partners purified

binding result: binds
B1: Nse5/6 dimer (loader) (complex, S. cerevisiae)
chain 1: MDGALINSVLYVSPRNGAHYFVELTEKHLLAFEMLNSMCLLENYDHVLLFLECQFGKSHNLAVIPFDIILVLFTLSTLSEYYKEPILRANDPYNTSRETLSRRALKLLQKYLAILKEFDSEQYNLYDLELLRCQFFLAIDTLTPKKQKWGFDRFRRTKSESGVTYRQNASVDPELDQAKTFKNPYRSYISCLEQRNTILGNRLLNLKLNEPGEFINMILWTLSNSLQESTPLFLSSHEIWMPLLEILIDLFSCRQDYFIQHEVAQNVSKSLFVQRLSESPLAVFFESLNTRNFANRFSEYVFLNCDYKLPSDNYATPVHPVYNGENTIVDTYIPTIKCSPLYKSQKSLALRRKLIGSCFKLLLRVPDGHRLITPRIVADDVIQGISRTLASFNDILQFKKFFMTENLSQESYFIPLLAEGTLSEILKDTQECVVILTLVENLSDGVSFCNEVIGLVKSKCFAFTEQCSQASYEEAVLNIEKCDVCLLVLLRYLLHLIGTEAILDAKEQLEMLHAIEKNDSGRRQWAKALNLGNDPPLLYPIVSQMFGVHDKSVIIE
chain 2: MGSVNSSPNEEFETVPDSQISGFDSPLIPTSVGSYFRDDDDDEKVHPNFISDPENDSLNSDEEFSSLENSDLNLSGAKAESGDDFDPILKRTIISKRKAPSNNEDEEIVKTPRKLVNYVPLKIFNLGDSFDDTITTTVAKLQDLKKEILDSPRSNKSIVITSNTVAKSELQKSIKFSGSIPEIYLDVVTKETISDKYKDWHFISKNCHYEQLMDLEMKDTAYSFLFGSSRSQGKVPEFVHLKCPSITNLLVLFGVNQEKCNSLKINYEKKENSRYDNLCTIFPVNKMLKFLMYFYSDDDNDDVREFFLKAFICLILDRKVFNAMESDHRLCFKVLELFNEAHFINSYFEIVDKNDFFLHYRLLQIFPHLQSALLRRRFSEKQGRTETIQQNIIKEFNEFFDCKNYKNLLYFILTMYGSKFIPFGPKCQVTEYFKDCILDISNETTNDVEISILKGILNLFSKIR
notes: Nse5, S. cerevisiae; a native cysteine of it cross-links off-target to Smc5(G1054C); Nse6, S. cerevisiae; also called Nse5/6 subcomplex; Nse5/6 complex
